Results: patent publication US20180045721A1

Target: streptavidin, P22629
Assay: SPR, BIAcore X100, streptavidin coupled to the chip, peptide in solution

Chain of streptavidin, P22629 (P22629 37-163 limits assumed): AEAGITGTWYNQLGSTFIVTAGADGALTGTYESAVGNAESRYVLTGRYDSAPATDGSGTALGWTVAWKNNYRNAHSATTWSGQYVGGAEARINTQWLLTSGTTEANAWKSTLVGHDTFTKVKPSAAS

Binder | Kd
NQPWQ (modifications not checked) [head-to-tail cyclic NQpWQ peptide] | 61.3 µM
LYDHPQNGGQ (modifications not checked) | 9.4 µM
H-LYDHPQNGGQ-OH | 100 µM
QNDHPQNGGQ (modifications not checked) | 10.8 µM
H-QNDHPQNGGQ-OH | 320 µM
